Residue numbers refer to the chain shown, from its start. Names may count otherwise. Like-named read-outs stand apart in the source and are kept apart here.
B1: pAcFRS.1: pAcFRS variant A167D, SEQ ID NO: 2 (protein)
chain: MDEFEMIKRNTSEIISEEELREVLKKDEKSALIGFEPSGKIHLGHYLQIKKMIDLQNAGFDIIILLADLHAYLNQKGELDEIRKIGDYNKKVFEAMGLKAKYVYGSEFQLDKDYTLNVYRLALKTTLKRARRSMELIAREDENPKVAEVIYPIMQVNGCHYRGVDVDVGGMEQRKIHMLARELLPKKVVCIHNPVLTGLDGEGKMSSSKGNFIAVDDSPEEIRAKIKKAYCPAGVVEGNPIMEIAKYFLEYPLTIKRPEKFGGDLTVNSYEELESLFKNKELHPMRLKNAVAEELIKILEPIRKRL
B2: pAcFRS.t2: pAcFRS variant R257C, F261E, SEQ ID NO: 4 (protein)
chain: B1 chain with D167A, R257C, F261E
B3: pAcFRS.2: pAcFRS variant L65V, A167D, SEQ ID NO: 7 (protein)
chain: B1 chain with L65V
B4: pAcFRS.1.t2: pAcFRS variant A167D, R257C, F261E, SEQ ID NO: 6 (protein)
chain: B1 chain with R257C, F261E
B5: pAcFRS.t1: pAcFRS variant R257G, SEQ ID NO: 3 (protein)
chain: B1 chain with D167A, R257G
B6: WTmjYRS: wild-type M. jannaschii TyrRS, the parent AARS of pAcFRS (protein, UniProt Q57834 1-306, looked up)
Tyrosine--tRNA ligase: B1 chain with L32Y, G158D, C159I, R162L, D167A, R286D

How the values were obtained:
GFP(3TAG) [1] = assay type: cell-based, E. coli; details: chromosomally integrated AARS; for higher GFP(3TAG) production compared with the progenitor enzyme: pAcF
Experimental: (§1) Liquid cell cultures of strains harboring chromosomally integrated OTSs and GFP reporter plasmids were inoculated from frozen stocks and grown to confluence overnight. Cultures were then inoculated at 1:20 dilution in LBmin media supplemented with 30 μg/ml kanamycin. Strains were inoculated by addition of 1:20 confluent cell culture (grown overnight) and allowed to grow at 34° C. to an OD600 of 0.5-0.8 in a shaking plate incubator at 650 r.p.m (˜3 h). AARS expression was then induced by the addition of 0.2% arabinose, GFP expression was induced by the addition of 60 ng/ul anhydrotetracycline, and the appropriate nsAA was added to a concentration of 1 mM. Cells were incubated at 34° C. for an additional 16 h. Liquid cell cultures of strains harboring plasmid-based OTSs and GFP or ELP-GFP reporter plasmids were inoculated from frozen stocks and grown to confluence overnight. Cultures were then inoculated at 1:20 dilution in 2×YT media supplemented with 30 μg/ml kanamycin and 20 μg/ml chloramphenicol. […] Cells were allowed to grow at 34° C. to an OD600 of 0.5-0.8 in a shaking plate incubator at 650 r.p.m (˜3 h), reporter protein expression was then induced by the addition of 60 ng/ul anhydrotetracycline, and cells were incubated at 34° C. for an additional 16 h.
(§2) For 384 well plate-based assays, fluorescence and OD600 were directly measured following expression. For 96 well plate-based assays, cells were centrifuged at 4,000 g for 4 min. Supernatant medium was removed and cells were resuspended in PBS. This process was repeated twice with PBS. GFP fluorescence was measured on a Biotek spectrophotometric plate reader using excitation and emission wavelengths of 395 and 509 nm, respectively). Fluorescence signals were normalized by dividing the fluorescence counts by the OD600 reading. The nsAAs used in this study were purchased from Sigma-Aldrich (St. Louis, Mo.), Chemlmpex (Wood Dale, Ill.), and Bachem (Torrance, Calif.). Solutions of nsAAs (50 mM) were made in water or 50 mM NaOH; these stock solutions were diluted 50- or 100-fold (to 1 mM final concentration) into medium used for bacterial growth.

[2] = ATP-PPi exchange assay (amino acid activation); assay type: biochemical
Experimental: A 25 μl ATP-PPi exchange reaction contained the following components: 100 mM HEPES-KOH (pH 7.5), 30 mM KCl, 10 mM MgCl2, 2 mM DTT, 2 mM KF, 2 mM NaPPi, 5 mM ATP, […], 2 μCi/μl of […] (PerkinElmer) and varied concentrations of amino acids (0.25, 0.5, 1.25, 2.5, 5, 10, and 20 mM, respectively). The reactions were incubated at 37° C. Time points were taken at 2 minutes, 5 minutes and 10 minutes by plotting 1 μl aliquots from the reaction immediately to the PEI-cellulose plates (Merck). For each reaction, 1 μl of blank reaction mixture containing no enzymes was set as background. The reaction mixtures were separated on the plates in 1 M urea and 1 M monopotassium phosphate. The plates were then scanned in a Molecular Dynamics Storm 860 phosphorimager (Amersham Biosciences). The ratio of ATP to PPi was determined to monitor reaction progress. The kinetic constants were derived from plotting initial velocity of a series of reactions that contained varied concentrations of amino acids. The data were analyzed by GraFit 5.0 (Erithacus Software).

GFP(3TAG) [3] = assay: nsAA library screening, GFP(3TAG) fluorescence in 384 well plates; assay type: cell-based, E. coli; details: GFP(3TAG) production in the presence of pAcF, pAzF and 236 other nsAAs
Experimental: as §1
as §2, with “growth. […]” for “growth.”

tRNA = assay: Aminoacylation assay (tRNA charging); assay type: biochemical
Experimental: Template plasmid containing tRNA gene was purified with the plasmid maxi kit (Qiagen), and 100 μg of plasmid was digested with BstNI (New England Biolabs). The BstNI digested template DNA was purified by phenol chloroform extraction, followed by ethanol precipitation and resolved in double distilled water. A His-tagged T7 RNA polymerase was purified over column of Ni-NTA resin according to manufacturer's instructions (Qiagen). The transcription reaction [40 mM Tris (pH 8); 4 mM each of UTP, CTP, GTP, and ATP at pH 7.0; 22 mM MgCl2; 2 mM spermidine; 10 mM DTT; 6 μg pyrophosphatase (Roche Applied Science); 60 μg/mL BstNI digested DNA template, approximately 0.2 mg/ml T7 RNA polymerase] was performed in 10 ml reaction volumes for overnight at 37° C. The tRNA was purified on 12% denaturing polyacrylamide gel containing 8 M urea and TBE buffer (90 mM Tris, 90 mM boric acid, 2 mM EDTA). UV shadowing illuminates the pure tRNA band, which is excised and extracted three times with 1M sodium acetate pH 5.3 at 4° C. The tRNA extractions were then ethanol precipitated, dissolved in RNase-free distilled water, pooled, and finally desalted using a Biospin 30 column (BioRad). The ratio of aminoacylated tRNA to total tRNA was determined to monitor reaction progress.
The tRNA was refolded by heating to 100° C. for 5 min and slow cooling to room temperature. At 65° C., MgC12, was added to a final concentration of 10 mM to aid folding. A His-tagged CCA adding enzyme was purified over column of Ni-NTA resin according to manufacturer's instructions (Qiagen). 16 μM folded tRNA in 50 mM Tris (pH 8.0), 20 mM MgCl2, 5 mM DTT and 50 μM NaPPi was incubated at room temperature for 1 hour with approximately 0.2 mg/ml CCA-adding enzyme and 1.6 μCi/μl of [α-32P]-labeled ATP (PerkinElmer). The sample was phenol/chloroform extracted and then passed over a Bio-spin 30 column (Bio-Rad) to remove excess ATP.
A 20 μl aminoacylation reaction contained the following components: 50 mM HEPES-KOH (pH 7.2), 25 mM KCl, 10 mM MgCl2, 5 mM DTT, 10 mM ATP, 25 μg/ml pyrophosphatase (Roche Applied Science), 2 mM amino acids. All plateau tRNA aminoacylation levels were determined at 37° C. according to the reactions conditions described above with 500 nM enzyme, 5 μM unlabeled tRNA plus 100 nM 32P-labeled tRNA. Time points were taken at 5 minutes, 20 minutes and 60 minutes by removing 2 μl aliquots from the reaction and immediately quenching the reaction into an ice-cold 3 μl quench solution [0.66 μg/μl nuclease P1 (Sigma) in 100 mM sodium citrate (pH 5.0)]. For each reaction, 2 μl of blank reaction mixture containing no enzymes was added to the quench solution as the start time point. The nuclease P1 mixture was then incubated at room temperature for 30 min and 1 μl aliquots were spotted on PEI-cellulose plates (Merck) and developed in running buffer containing 5% acetic acid and 100 mM ammonium acetate. Radioactive spots for AMP and AA-AMP (representing free tRNA and aminoacyl-tRNA, respectively) were separated and then visualized and quantified by phosphor imaging by a Molecular Dynamics Storm 860 phosphorimager (Amersham Biosciences). The ratio of aminoacylated tRNA to total tRNA was determined to monitor reaction progress.

[4] = nsAA pAcF, relative to progenitor pAcFRS
[5] = nsAA pAzF, relative to progenitor pAcFRS
[6] = amino acid Tyrosine, relative to pAcFRS

Molecule | higher GFP(3TAG) production compared with the progenitor enzyme (GFP(3TAG) [1]) [fold] | Km ([2]; nsAA pAcF) [µM] | kcat ([2]; nsAA pAcF) | Fold change [2, 4] | Km ([2]; nsAA pAzF) [µM] | kcat ([2]; nsAA pAzF) | Fold change [2, 5] | nsAA specificity (polyspecificity) (GFP(3TAG) [3]) | Km (tRNA; nsAA pAcF) [µM] | kcat (tRNA; nsAA pAcF) | Fold change (tRNA; [4]) | Km (tRNA; nsAA pAzF) [µM] | kcat (tRNA; nsAA pAzF) | Fold change (tRNA; [5]) | further results
B1 | ~8 | 2160 ± 720 | 6.84 ± 0.64 ×10^−2 s^−1 | 4.64 | 1740 ± 390 | 3.50 ± 0.20 ×10^−2 s^−1 | 1.37 | polyspecifity for at least pAcF, pAzF, StyA, 4IF, 4BrF, 4ClF, 4MeF, 4Cf3F, MeY, 4NO2F, 4BuF, BuY, 2NaA, PheF | 36 ± 7 | 1.21 ± 0.24 ×10^−3 s^−1 | 4.60 | 31 ± 9 | 0.65 ± 0.20 ×10^−3 s^−1 | 3.38 | 
B2 | ~1.5 | 8590 ± 3230 | 6.67 ± 1.27 ×10^−2 s^−1 | 1.14 |  |  |  | polyspecifity for at least pAcF, pAzF, StyA | 29 ± 3 | 0.27 ± 0.07 ×10^−3 s^−1 | 1.27 |  |  |  | 
B3 |  | 3130 ± 1730 | 5.28 ± 0.79 ×10^−2 s^−1 | 2.48 | 6400 ± 780 | 4.08 ± 0.20 ×10^−2 s^−1 | 0.44 | polyspecifity for at least pAcF, pAzF, StyA, 4IF, 4BrF, 4ClF, 4MeF, 4Cf3F, MeY, 4NO2F, 4BuF, BuY, 2NaA, PheF | 31 ± 7 | 0.58 ± 0.09 ×10^−3 s^−1 | 2.56 | 33 ± 8 | 0.18 ± 0.02 ×10^−3 s^−1 | 0.88 | selectivity toward pAcF over pAzF (GFP(3TAG) [1]; GFP(3TAG) expression): increase in selectivity
B4 | ~15 | 1690 ± 440 | 6.30 ± 0.46 ×10^−2 s^−1 | 5.47 |  |  |  | polyspecifity for at least pAcF, pAzF, StyA, 4IF, 4BrF, 4ClF, 4MeF, 4Cf3F, MeY, 4NO2F, 4BuF, BuY, 2NaA, PheF | 27 ± 3 | 1.03 ± 0.06 ×10^−3 s^−1 | 5.22 |  |  |  | 
B5 | ~1.5 | 9170 ± 3670 | 6.92 ± 1.27 ×10^−2 s^−1 | 1.11 |  |  |  | polyspecifity for at least pAc.F, pAzF, StyA | 17 ± 3 | 0.22 ± 0.02 ×10^−3 s^−1 | 1.77 |  |  |  | 
B6 |  |  |  |  |  |  |  |  |  |  |  |  |  |  | kcat ([2]; amino acid Tyrosine): 52.2 ± 4.1 ×10^−2 s^−1; Km ([2]; amino acid Tyrosine, read-out: Km, nsAA): 76 ± 30 µM; Fold change [2, 6]: 1007; Km (tRNA; amino acid Tyrosine): 23 ± 3 µM; kcat (tRNA; amino acid Tyrosine): 130 ± 22 ×10^−3 s^−1; Fold change (tRNA; [6]): 774
